The target in test [1] is p9 p9 (Equine infectious anemia virus) (UniProt P69730). Briefly: SPR. The conditions noted are these: cited from earlier work.
For test [2], the target named is T1, GAL4 DBD-p9 EIAVUK, P69732.
T1 chain: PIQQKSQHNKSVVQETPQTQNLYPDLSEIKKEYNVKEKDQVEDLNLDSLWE
Put plainly: yeast two-hybrid, β-galactosidase assay. The conditions noted are these: chain shown with the change;; parent: est. 1.2; read off a plot.

Test [3] has as its target T2, Gal4 DBD-HIV-1 p6 (wild type), P12493.
T2 chain: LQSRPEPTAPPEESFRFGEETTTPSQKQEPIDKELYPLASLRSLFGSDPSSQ
Put plainly: yeast two-hybrid, β-galactosidase assay. The conditions noted are these: chain shown with the change;; parent: est. 0.85; read off a plot.

Regarding “ALIX deleted from PRR (from UniProt Q8WUM4)”, the Kd in test [1] is 1.2 µM.

B1: Gal4 AD-ALIXΔ541–582, Q8WUM4-1 V509A (protein)
chain: MATFISVQLKKTSEVDLAKPLVKFIQQTYPSGGEEQAQYCRAAEELSKLRRAAVGRPLDKHEGALETLLRYYDQICSIEPKFPFSENQICLTFTWKDAFDKGSLFGGSVKLALASLGYEKSCVLFNCAALASQIAAEQNLDNDEGLKIAAKHYQFASGAFLHIKETVLSALSREPTVDISPDTVGTLSLIMLAQAQEVFFLKATRDKMKDAIIAKLANQAADYFGDAFKQCQYKDTLPKEVFPVLAAKHCIMQANAEYHQSILAKQQKKFGEEIARLQHAAELIKTVASRYDEYVNVKDFSDKINRALAAAKKDNDFIYHDRVPDLKDLDPIGKATLVKSTPVNVPISQKFTDLFEKMVPVSVQQSLAAYNQRKADLVNRSIAQMREATTLANGVLASLNLPAAIEDVSGDTVPQSILTKSRSVIEQGGIQTVDQLIKELPELLQRNREILDESLRLLDEEEATDNDLRAKFKERWQRTPSNELYKPLRAEGTNFRTVLDKAVQADGQAKECYQSHRDTIVLLCKPEPELNAAIPSANPAKTMQGSEVVNVLKSLLSNLDEVKKEREGLENDLKSVNFDMTSKFLTALAQDGVINEEALSVTELDRVYGGLTTKVQESLKKQEGLLKNIQVSHQEFSKMKQSNNEANLREEVLKNLATAYDNFVELVANLKEGTKFYNELTEILVRFQNKCSDIVFARKTERDELLKDLQQSIAREPSAPSIPTPAYQSSPAGGHAPTPPTPAPRTMPPTKPQPPARPPPPVLPANRAPSATAPSPVGAGTAAPAPSQTPGSAPPPQAQGPPYPTYPGYPGYCQMPMPMGYNPYAYGQYNMPYPPVYHQSPGQAPYPGPQQPSYPFPQPPQQSYYPQQ
In the case of B1, the other: relative β-Gal activity (relative to ALIX wild type = 1) came out at 1.1 in test [2] and 0.05 in test [3].

What is called Kd is a measure of binding affinity in units of concentration.
